From publication PMC3814370, “Functional assignment of KEOPS/EKC complex subunits in the biosynthesis of the universal t^6A tRNA modification” (Nucleic Acids Research, 2013)
Values belong to the substance of their own block, whether it stands above or below them.

Assays:
[1] = target: Pcc1–Kae1 binary complex from Pyrococcus abyssi (Pyrococcus abyssi) (UniProt Q9V1Z9)
[2] = system: Kae1-Bud32 (Pyrococcus abyssi); experiment: EMSA; settings: apparent Kd; retarded bands from 50 nM; EMSA: 10 nM 32P-tRNA, 20 µl binding buffer BB (composition not in material), 15 min at 4 C (Figure 7 legend: room temperature), 10% native gel in 1X TGE at 4 C

Sequence of Pcc1–Kae1 binary complex from Pyrococcus abyssi (Pyrococcus abyssi) (Q9V1Z9 whole entry, chain 1 of 2): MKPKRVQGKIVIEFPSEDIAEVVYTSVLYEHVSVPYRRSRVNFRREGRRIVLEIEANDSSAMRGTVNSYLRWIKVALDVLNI
Sequence of Pcc1–Kae1 binary complex from Pyrococcus abyssi (Pyrococcus abyssi) (Q9UXT7 whole entry, chain 2 of 2, further chain): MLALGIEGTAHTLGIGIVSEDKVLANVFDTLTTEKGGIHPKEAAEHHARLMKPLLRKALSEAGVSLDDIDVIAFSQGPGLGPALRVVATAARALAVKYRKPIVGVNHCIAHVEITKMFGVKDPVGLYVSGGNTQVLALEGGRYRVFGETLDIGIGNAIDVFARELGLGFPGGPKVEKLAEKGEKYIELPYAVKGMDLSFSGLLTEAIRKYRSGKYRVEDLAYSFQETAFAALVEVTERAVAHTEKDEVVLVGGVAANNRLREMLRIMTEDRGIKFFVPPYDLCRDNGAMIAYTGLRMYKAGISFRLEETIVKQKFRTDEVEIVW

t^6A synthesis (14C-L-threonine incorporated into tRNA) by a mix of the two binary complexes, relative to PaKEOPS [1]: 30%
Substance: Kae1–Bud32 binary complex from Pyrococcus abyssi (from UniProt Q9UXT7 1-324; Q9UYB9 1-220)

t^6A synthesis (14C-L-threonine incorporated into tRNA) after adding Pcc1–Kae1 to the ternary complex, relative to PaKEOPS [1]: 36%
Substance: Kae1–Bud32–Cgi121 ternary complex from Pyrococcus abyssi (from UniProt Q9UXT7 1-324; Q9UYB9 1-220; Q9UZ62 1-171)

Substance: substrate tRNA (probably Ec_tRNALys)
Kd [2]: 2000 nM
